This is an account of results in article PMC9352680, “A comprehensive thermodynamic model for RNA binding by the Saccharomyces cerevisiae Pumilio protein PUF4”.

This data set deals with T1, PUF4 RNA-binding domain (Saccharomyces cerevisiae, UniProt P25339 537-888).
T1 sequence: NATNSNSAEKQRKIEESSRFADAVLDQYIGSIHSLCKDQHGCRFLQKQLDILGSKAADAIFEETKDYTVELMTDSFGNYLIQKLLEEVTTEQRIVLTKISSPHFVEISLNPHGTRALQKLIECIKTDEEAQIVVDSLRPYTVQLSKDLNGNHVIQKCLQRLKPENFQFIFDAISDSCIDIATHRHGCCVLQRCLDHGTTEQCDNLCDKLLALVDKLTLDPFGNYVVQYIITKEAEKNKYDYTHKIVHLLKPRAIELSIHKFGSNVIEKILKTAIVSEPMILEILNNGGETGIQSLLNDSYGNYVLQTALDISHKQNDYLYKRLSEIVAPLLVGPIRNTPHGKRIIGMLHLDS
Briefly: Mg; RNA-MaP; 20 mM Na-HEPES pH 7.4, 30 mM KOAc, 0.75 mM MgCl2, 0.1% Tween-20, 5% glycerol, 0.1 mg/mL BSA, 2 mM DTT; 25 C; 0.0125-409.6 nM protein. Particulars: tags: N-His6-TEV cleaved; C-SNAP kept, Cy3B-labelled; label: tethered on chip by stalled RNA polymerase.

Residue numbers refer to the chain shown, from its start. Numbers in names are those of the source. Where only a bound is given, the exact number is not on record here.

In turn, UCUCUUUUUAUAUUAUCUCUU (ssRNA) [Ia_S1_P4E.1_K4.1_C4.1_H4.1_[G2T]_A4.1_F4.1_T4.1] had a Kd of 655 nM.
To UCUCUUCGUAUAUUGUCUCUU (ssRNA) [Ib_S1_P4E.1_K4.1_C4.1_H4.1_[T1C]_A4.1_F4.1_[A9G]_T4.1] belongs 663 nM.

B1: Ic_S2_P5E.1_K5.1_C5.1_H5.1_A5.1_[T5A]_[A7G]_F5.1_[T8G]_T5.1 (ssRNA)
RNA: UUUGAUUAAUAUGAUAUCGUUCUUUCUUGUAAUGGUAUUCUUUCUCGAUAUCAUAUUAAUCUUU
Molecule B1 yielded a Kd of 48.9 nM.

B2: Ic_S2_P5E.1_K5.1_C5.1_H5.1_A5.1_[T6A]_F5.1_[T8C]_[T9G]_[A10T]_T5.1 (ssRNA)
RNA: B1 RNA with A32U, U33A, G34A, G35C, U36G, A37U
On to B2, for which binding was put at a Kd of 15 nM.

B3: Ic_S2_P5E.1_K5.1_C5.1_H5.1_A5.1_[T5A]_[A7C]_F5.1_[T9C]_[A10T]_T5.1 (ssRNA)
RNA: B1 RNA with G34C, G35U, U36C, A37U
Consider B3, for which the affinity, expressed as Kd, was 36.5 nM.

B4: Ic_S2_P5E.1_K5.1_C5.1_H5.1_A5.1_[T5G]_[A7C]_F5.1_[T9A]_T5.1 (ssRNA)
RNA: B1 RNA with A32G, G34C, G35U, U36A
With B4, the Kd came out at 6.4 nM.

B5: Ic_S2_P5E.1_K5.1_C5.1_H5.1_A5.1_[T5C]_[T6A]_F5.1_[T9A]_T5.1 (ssRNA)
RNA: B1 RNA with A32C, U33A, G34A, G35U, U36A
B5 displayed a Kd of 0.983 nM.

B6: Ic_S2_P5E.1_K5.1_C5.1_H5.1_A5.1_[T5C]_[T6C]_F5.1_[T8C]_[T9C]_[A10C]_T5.1 (ssRNA)
RNA: B1 RNA with A32C, U33C, G34A, G35C, U36C, A37C
Turning to B6, the Kd was determined as 347 nM.

B7: Ic_S2_P5E.1_K5.1_C5.1_H5.1_A5.1_[T5C]_[T6A]_[A7C]_F5.1_[T9C]_[A10C]_T5.1 (ssRNA)
RNA: B1 RNA with A32C, U33A, G34C, G35U, U36C, A37C
For the molecule B7, the Kd came out at 5.44 nM.

B8: Ic_S2_P5E.1_K5.1_C5.1_H5.1_A5.1_[T5C]_[T6C]_F5.1_[T8G]_[A10C]_T5.1 (ssRNA)
RNA: B1 RNA with A32C, U33C, G34A, A37C
B8 returned a dissociation constant Kd of 192 nM.

B9: Ic_S2_P5E.1_K5.1_C5.1_H5.1_A5.1_[T5A]_[T6C]_[A7C]_F5.1_[T8C]_[T9A]_T5.1 (ssRNA)
RNA: B1 RNA with U33C, G34C, G35C, U36A
In turn, B9 gave a Kd above 2300 nM.

B10: Ic_S2_P5E.1_K5.1_C5.1_H5.1_A5.1_[T6G]_[A7T]_F5.1_[T9C]_[A10C]_T5.1 (ssRNA)
RNA: B1 RNA with A32U, U33G, G34U, G35U, U36C, A37C
B10 gave a Kd of 11.9 nM.

B11: Ic_S2_P5E.1_K5.1_C5.1_H5.1_A5.1_[T5A]_[A7T]_F5.1_[T8A]_[T9C]_[A10G]_T5.1 (ssRNA)
RNA: B1 RNA with G34U, G35A, U36C, A37G
The molecule B11 had a Kd of 761 nM.

B12: Ic_S2_P5E.1_K5.1_C5.1_H5.1_A5.1_[T5G]_[T6C]_F5.1_[T9C]_T5.1 (ssRNA)
RNA: B1 RNA with A32G, U33C, G34A, G35U, U36C
Consider B12, for which the Kd came out at 87.8 nM.

B13: Ic_S2_P5E.1_K5.1_C5.1_H5.1_A5.1_F5.1_[T8A]_[T9C]_[A10T]_T5.1 (ssRNA)
RNA: B1 RNA with A32U, G34A, G35A, U36C, A37U
Molecule B13 had a Kd of 558 nM.

B14: Ic_S2_P5E.1_K5.1_C5.1_H5.1_A5.1_[T5A]_[T6C]_[A7C]_F5.1_[T8A]_[A10G]_T5.1 (ssRNA)
RNA: B1 RNA with U33C, G34C, G35A, A37G
Take B14: the dissociation constant (Kd) is 751 nM.

B15: Ic_S2_P5E.1_K5.1_C5.1_H5.1_A5.1_[A7C]_F5.1_[T8G]_[T9G]_[A10T]_T5.1 (ssRNA)
RNA: B1 RNA with A32U, G34C, U36G, A37U
The molecule B15 came in with a Kd of 475 nM.

B16: Ic_S2_P5E.1_K5.1_C5.1_H5.1_A5.1_[T5A]_[T6A]_[A7T]_F5.1_[A10T]_T5.1 (ssRNA)
RNA: B1 RNA with U33A, G34U, G35U, A37U
On to B16, for which the Kd amounted to 17.4 nM.

B17: Ic_S2_P5E.1_K5.1_C5.1_H5.1_A5.1_[T5A]_[A7G]_F5.1_[T8C]_[A10T]_T5.1 (ssRNA)
RNA: B1 RNA with G35C, A37U
Molecule B17 yielded a Kd of 423 nM.

B18: Ic_S2_P5E.1_K5.1_C5.1_H5.1_A5.1_[T5A]_[A7T]_F5.1_[T9C]_[A10G]_T5.1 (ssRNA)
RNA: B1 RNA with G34U, G35U, U36C, A37G
Take B18: binding was characterised by a dissociation constant (Kd) of 108 nM.

B19: Ic_S2_P5E.1_K5.1_C5.1_H5.1_A5.1_[T5G]_[A7C]_F5.1_[T8A]_[A10G]_T5.1 (ssRNA)
RNA: B1 RNA with A32G, G34C, G35A, A37G
The molecule B19 came in with a Kd of 450 nM.

B20: Ic_S2_P5E.1_K5.1_C5.1_H5.1_A5.1_[T5G]_[A7C]_F5.1_[T8G]_[T9C]_[A10C]_T5.1 (ssRNA)
RNA: B1 RNA with A32G, G34C, U36C, A37C
As to B20, the Kd came to 1490 nM.

B21: Ic_S2_P5E.1_K5.1_C5.1_H5.1_A5.1_[T5C]_[T6A]_[A7G]_F5.1_[T9C]_[A10C]_T5.1 (ssRNA)
RNA: B1 RNA with A32C, U33A, G35U, U36C, A37C
B21 yielded a Kd of 13.5 nM.

B22: Ic_S2_P5E.1_K5.1_C5.1_H5.1_A5.1_[T6C]_[A7G]_F5.1_[T9A]_[A10C]_T5.1 (ssRNA)
RNA: B1 RNA with A32U, U33C, G35U, U36A, A37C
Take B22: the Kd was determined as 28 nM.

B23: Ic_S2_P5E.1_K5.1_C5.1_H5.1_A5.1_[T5C]_[T6A]_[A7C]_F5.1_[T8A]_[A10G]_T5.1 (ssRNA)
RNA: B1 RNA with A32C, U33A, G34C, G35A, A37G
In turn, B23 came in with a Kd of 114 nM.

B24: Ic_S2_P5E.1_K5.1_C5.1_H5.1_A5.1_[T5C]_[T6A]_F5.1_[T8A]_[T9A]_[A10T]_T5.1 (ssRNA)
RNA: B1 RNA with A32C, U33A, G34A, G35A, U36A, A37U
B24 yielded a Kd of 8.8 nM.

B25: Ic_S2_P5E.1_K5.1_C5.1_H5.1_A5.1_[T5C]_F5.1_[T8C]_[T9C]_[A10C]_T5.1 (ssRNA)
RNA: B1 RNA with A32C, G34A, G35C, U36C, A37C
For B25, the Kd was found to be 245 nM.

B26: Ic_S2_P5E.1_K5.1_C5.1_H5.1_A5.1_[T5G]_[A7T]_F5.1_[T8G]_[T9C]_[A10T]_T5.1 (ssRNA)
RNA: B1 RNA with A32G, G34U, U36C, A37U
The molecule B26 yielded a Kd of 436 nM.

B27: Ic_S2_P5E.1_K5.1_C5.1_H5.1_A5.1_[T6A]_F5.1_[T8A]_[T9A]_T5.1 (ssRNA)
RNA: B1 RNA with A32U, U33A, G34A, G35A, U36A
Consider B27, for which the affinity, expressed as Kd, was 34.6 nM.

B28: Ic_S2_P5E.1_K5.1_C5.1_H5.1_A5.1_[T6A]_[A7G]_F5.1_[T8C]_[T9C]_[A10T]_T5.1 (ssRNA)
RNA: B1 RNA with A32U, U33A, G35C, U36C, A37U
The molecule B28 had a Kd of 61.4 nM.

B29: Ic_S2_P5E.1_K5.1_C5.1_H5.1_A5.1_[T5A]_[T6C]_[A7T]_F5.1_[T9G]_[A10T]_T5.1 (ssRNA)
RNA: B1 RNA with U33C, G34U, G35U, U36G, A37U
B29: the Kd worked out at 304 nM.

B30: Ic_S2_P5E.1_K5.1_C5.1_H5.1_A5.1_[T6G]_[A7C]_F5.1_[T8C]_[T9C]_[A10T]_T5.1 (ssRNA)
RNA: B1 RNA with A32U, U33G, G34C, G35C, U36C, A37U
As to B30, the Kd is 582 nM.

B31: Ic_S2_P5E.1_K5.1_C5.1_H5.1_A5.1_[T5C]_[T6G]_[A7C]_F5.1_[T8C]_[T9C]_[A10C]_T5.1 (ssRNA)
RNA: B1 RNA with A32C, U33G, G34C, G35C, U36C, A37C
For B31, the Kd was 140 nM.

B32: Ic_S2_P5E.1_K5.1_C5.1_H5.1_A5.1_[T5C]_[T6C]_[A7G]_F5.1_[T8G]_[A10C]_T5.1 (ssRNA)
RNA: B1 RNA with A32C, U33C, A37C
Turning to B32, the Kd was above 2300 nM.

B33: Ic_S2_P5E.1_K5.1_C5.1_H5.1_A5.1_[T5A]_[T6A]_[A7T]_F5.1_[T8A]_[T9A]_[A10C]_T5.1 (ssRNA)
RNA: B1 RNA with U33A, G34U, G35A, U36A, A37C
In the case of B33, the Kd was 30.3 nM.

B34: Ic_S2_P5E.1_K5.1_C5.1_H5.1_A5.1_[T5C]_[T6C]_[A7C]_F5.1_[T8G]_[T9C]_[A10C]_T5.1 (ssRNA)
RNA: B1 RNA with A32C, U33C, G34C, U36C, A37C
As to B34, the Kd was determined as 1000 nM.

B35: Ic_S2_P5E.1_K5.1_C5.1_H5.1_A5.1_[T5A]_[T6C]_[A7C]_F5.1_[T9C]_[A10G]_T5.1 (ssRNA)
RNA: B1 RNA with U33C, G34C, G35U, U36C, A37G
B35 came in with an equilibrium dissociation constant (Kd) of 563 nM.

B36: Ic_S2_P5E.1_K5.1_C5.1_H5.1_A5.1_[T6A]_[A7C]_F5.1_[T9A]_[A10G]_T5.1 (ssRNA)
RNA: B1 RNA with A32U, U33A, G34C, G35U, U36A, A37G
Molecule B36 registered a Kd of 1.41 nM.

B37: Ic_S2_P5E.1_K5.1_C5.1_H5.1_A5.1_[T5G]_[T6C]_[A7T]_F5.1_[T8A]_[A10T]_T5.1 (ssRNA)
RNA: B1 RNA with A32G, U33C, G34U, G35A, A37U
Take B37: the affinity, expressed as Kd, was 43.1 nM.

B38: Ic_S2_P5E.1_K5.1_C5.1_H5.1_A5.1_[T5C]_[A7G]_F5.1_[T9A]_[A10T]_T5.1 (ssRNA)
RNA: B1 RNA with A32C, G35U, U36A, A37U
The molecule B38 gave a Kd of 2.45 nM.
In turn, UCUCUUGGUAUAUUGUCUCUU (ssRNA) [Ib_S1_P4E.1_K4.1_C4.1_H4.1_[T1G]_A4.1_F4.1_[A9G]_T4.1] came in with a Kd of 690 nM.
The molecule UCUCUUUGUUUAUAAUCUCUU (ssRNA) [Ib_S1_P4E.1_K4.1_C4.1_H4.1_[A4T]_A4.1_F4.1_[T8A]_T4.1] yielded a dissociation constant (Kd) of 495 nM.
